Laboratory results as given in patent publication US20190153112A1 (IMMUTEP S A S, published 2019).

Tests used:
[1] = target: human LAG-3 protein (Lymphocyte activation gene-3) on the cell surface (human) (UniProt P18627); test: flow cytometry on CD4+ cells of SEB-stimulated PBMCs (Donor 1); antibody 10000 ng/ml
[2] = target: IMP321 (recombinant soluble human LAG-3Ig fusion protein) (human) (UniProt P18627); test: FACS, LAG-3Ig-Alexa 488 (1 µg/ml) pre-incubated with antibody 990 ng/ml, then bound to Raji (MHC class II+) cells
[3] = target: human LAG-3 protein (Lymphocyte activation gene-3) on the cell surface (human) (UniProt P18627); test: flow cytometry on CD4+ cells of SEB-stimulated PBMCs (Donor 1); antibody 1.6 ng/ml
[4] = target: human LAG-3 protein (Lymphocyte activation gene-3) on the cell surface (human) (UniProt P18627); test: flow cytometry on CD4+ cells of SEB-stimulated PBMCs (Donor 1); antibody 2326 ng/ml
[5] = target: human LAG-3 protein (Lymphocyte activation gene-3) on the cell surface (human) (UniProt P18627); test: flow cytometry on LAG-3-transfected CHO cells; antibody 0 ng/ml (no-antibody background)
[6] = target: human LAG-3 protein (Lymphocyte activation gene-3) on the cell surface (human) (UniProt P18627); test: flow cytometry on LAG-3-transfected CHO cells; antibody 0.4 ng/ml
[7] = target: human LAG-3 protein (Lymphocyte activation gene-3) on the cell surface (human) (UniProt P18627); test: flow cytometry on LAG-3-expressing CHO cells, from Table 12
[8] = target: human LAG-3 protein (Lymphocyte activation gene-3) on the cell surface (human) (UniProt P18627); test: flow cytometry on LAG-3-transfected CHO cells; antibody 1 ng/ml
[9] = target: human LAG-3 protein (Lymphocyte activation gene-3) on the cell surface (human) (UniProt P18627); test: flow cytometry on LAG-3-transfected CHO cells; antibody 10000 ng/ml
[10] = target: human LAG-3 protein (Lymphocyte activation gene-3) on the cell surface (human) (UniProt P18627); test: flow cytometry on CD4+ cells of SEB-stimulated PBMCs (Donor 1); antibody 0.4 ng/ml
[11] = target: human LAG-3 protein (Lymphocyte activation gene-3) on the cell surface (human) (UniProt P18627); test: flow cytometry on CD4+ cells of SEB-stimulated PBMCs (Donor 1); antibody 0 ng/ml (no-antibody background)
[12] = target: human LAG-3 protein (Lymphocyte activation gene-3) on the cell surface (human) (UniProt P18627); test: flow cytometry on CD8+ cells of SEB-stimulated PBMCs (Donor 1); antibody 10000 ng/ml
[13] = target: human LAG-3 protein (Lymphocyte activation gene-3) on the cell surface (human) (UniProt P18627); test: flow cytometry on LAG-3-transfected CHO cells; antibody 20 ng/ml
[14] = target: human LAG-3 protein (Lymphocyte activation gene-3) on the cell surface (human) (UniProt P18627); test: flow cytometry on CD4+ cells of SEB-stimulated PBMCs (Donor 1), from Table 13
[15] = target: human LAG-3 protein (Lymphocyte activation gene-3) on the cell surface (human) (UniProt P18627); test: flow cytometry on CD4+ cells of SEB-stimulated PBMCs (Donor 1); antibody 7 ng/ml
[16] = target: human LAG-3 protein (Lymphocyte activation gene-3) on the cell surface (human) (UniProt P18627); test: flow cytometry on CD8+ cells of SEB-stimulated PBMCs (Donor 1), from Table 13
[17] = target: human LAG-3 protein (Lymphocyte activation gene-3) on the cell surface (human) (UniProt P18627); test: flow cytometry on CD8+ cells of SEB-stimulated PBMCs (Donor 1); antibody 0 ng/ml (no-antibody background)
[18] = target: human LAG-3 protein (Lymphocyte activation gene-3) on the cell surface (human) (UniProt P18627); test: flow cytometry on CD8+ cells of SEB-stimulated PBMCs (Donor 1); antibody 2326 ng/ml
[19] = target: IMP321 (recombinant soluble human LAG-3Ig fusion protein) (human) (UniProt P18627); test: FACS, LAG-3Ig-Alexa 488 (1 µg/ml) pre-incubated with antibody 27 ng/ml, then bound to Raji (MHC class II+) cells
[20] = target: human LAG-3 protein (Lymphocyte activation gene-3) on the cell surface (human) (UniProt P18627); test: flow cytometry on CD8+ cells of SEB-stimulated PBMCs (Donor 1); antibody 126 ng/ml
[21] = target: human LAG-3 protein (Lymphocyte activation gene-3) on the cell surface (human) (UniProt P18627); test: flow cytometry on CD4+ cells of SEB-stimulated PBMCs (Donor 1); antibody 541 ng/ml
[22] = target: human LAG-3 protein (Lymphocyte activation gene-3) on the cell surface (human) (UniProt P18627); test: flow cytometry on LAG-3-transfected CHO cells; antibody 6 ng/ml
[23] = target: human LAG-3 protein (Lymphocyte activation gene-3) on the cell surface (human) (UniProt P18627); test: flow cytometry on LAG-3-transfected CHO cells; antibody 2000 ng/ml
[24] = target: IMP321 (recombinant soluble human LAG-3Ig fusion protein) (human) (UniProt P18627); test: Biacore, 17B4 antibody on the chip and LAG-3Ig in the running buffer
[25] = target: human LAG-3 protein (Lymphocyte activation gene-3) on the cell surface (human) (UniProt P18627); test: flow cytometry on LAG-3-transfected CHO cells; antibody 500 ng/ml
[26] = target: human LAG-3 protein (Lymphocyte activation gene-3) on the cell surface (human) (UniProt P18627); test: flow cytometry on CD8+ cells of SEB-stimulated PBMCs, mean of three donors
[27] = target: IMP321 (recombinant soluble human LAG-3Ig fusion protein) (human) (UniProt P18627); test: cell-based or functional assay
[28] = target: human LAG-3 protein (Lymphocyte activation gene-3) on the cell surface (human) (UniProt P18627); test: flow cytometry on CD8+ cells of SEB-stimulated PBMCs (Donor 1); antibody 29 ng/ml

Sequence of human LAG-3 protein (Lymphocyte activation gene-3) on the cell surface (human) (P18627 other isoform, or with tags, fused parts or gaps): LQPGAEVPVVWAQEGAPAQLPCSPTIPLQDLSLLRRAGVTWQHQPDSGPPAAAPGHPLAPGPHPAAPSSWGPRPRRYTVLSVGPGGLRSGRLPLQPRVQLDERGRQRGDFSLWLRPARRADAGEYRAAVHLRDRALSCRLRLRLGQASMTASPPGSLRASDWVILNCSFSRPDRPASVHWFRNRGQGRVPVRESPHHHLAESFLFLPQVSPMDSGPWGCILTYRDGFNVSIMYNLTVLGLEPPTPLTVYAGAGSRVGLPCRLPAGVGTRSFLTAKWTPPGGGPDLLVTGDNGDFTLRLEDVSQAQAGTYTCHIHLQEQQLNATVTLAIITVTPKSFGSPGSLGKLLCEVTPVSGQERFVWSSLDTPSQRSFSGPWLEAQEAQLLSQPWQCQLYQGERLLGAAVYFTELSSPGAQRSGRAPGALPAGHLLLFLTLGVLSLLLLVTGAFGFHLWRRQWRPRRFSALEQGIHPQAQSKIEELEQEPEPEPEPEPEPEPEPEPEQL
Sequence of IMP321 (recombinant soluble human LAG-3Ig fusion protein) (human) (P18627 23-450): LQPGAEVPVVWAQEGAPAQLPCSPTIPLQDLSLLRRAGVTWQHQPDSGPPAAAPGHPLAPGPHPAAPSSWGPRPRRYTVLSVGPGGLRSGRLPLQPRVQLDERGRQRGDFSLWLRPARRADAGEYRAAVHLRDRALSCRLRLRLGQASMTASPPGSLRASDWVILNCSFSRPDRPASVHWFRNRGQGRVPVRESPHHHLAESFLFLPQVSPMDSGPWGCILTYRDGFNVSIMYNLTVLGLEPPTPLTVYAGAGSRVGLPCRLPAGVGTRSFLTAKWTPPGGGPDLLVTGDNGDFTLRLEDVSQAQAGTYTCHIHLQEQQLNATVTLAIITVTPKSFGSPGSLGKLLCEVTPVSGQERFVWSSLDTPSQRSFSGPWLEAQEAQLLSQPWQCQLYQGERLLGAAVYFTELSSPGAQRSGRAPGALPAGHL

For “antagonistic anti-LAG-3 mouse monoclonal antibody 17B4”, the MFI [1] was 1600 MFI, the MFI of sLAG-3Ig-Alexa 488 [2] was 35 MFI and the MFI [3] was 192 MFI. It also gave an MFI [4] of 1940 MFI, an MFI [5] of 156 MFI and an MFI [6] of 179 MFI. It also gave an EC50 [7] of 0.7 nM, an MFI [8] of 247 MFI and an MFI [9] of 6090 MFI. It also gave an MFI [10] of 143 MFI, an MFI [11] of 106 MFI and an MFI [12] of 5140 MFI. For the same substance, the MFI [13] was 1380 MFI, the EC50 [14] was 0.5 nM and the MFI [15] was 324 MFI. The EC50 [16] was 0.7 nM, the MFI [17] was 112 MFI and the MFI [18] was 4830 MFI. It also gave an MFI of sLAG-3Ig-Alexa 488 [19] of 260 MFI, an MFI [20] of 2840 MFI and an MFI [21] of 1750 MFI. For the same substance, the MFI [22] was 549 MFI, the MFI [23] was 5480 MFI and the Ka [24] was 2.71e+08 M⁻¹. It also gave a Kd [24] of 3.69 nM, a koff [24] of 0.000818 s⁻¹ and a kon [24] of 222000 M⁻¹ s⁻¹. The MFI [25] was 4760 MFI, the EC50 [26] was 1 nM and the [CCL4] in THP-1 monocytic cells supernatant; IMP321 20 ng/ml pre-incubated with antibody 2 ng/ml [27] was 1960 pg/mL. The [CCL4] in THP-1 monocytic cells supernatant; IMP321 20 ng/ml pre-incubated with antibody 20 ng/ml [27] was 1550 pg/mL, the [CCL4] in THP-1 monocytic cells supernatant; IMP321 20 ng/ml pre-incubated with antibody 200 ng/ml [27] was 860 pg/mL and the [CCL4] in THP-1 monocytic cells supernatant; IMP321 20 ng/ml pre-incubated with antibody 2000 ng/ml [27] was 947 pg/mL. The [CCL4] in THP-1 monocytic cells supernatant; IMP321 20 ng/ml pre-incubated with antibody 20000 ng/ml [27] was 860 pg/mL, the [CCL4] in THP-1 monocytic cells supernatant; IMP321 20 ng/ml, antibody 0 ng/ml (no-antibody value) [27] was 2110 pg/mL and the MFI [28] was 1400 MFI.
